Laboratory results: US20250388643A1, “GLUCAGON-LIKE PEPTIDE-2 COMPOSITIONS AND METHODS OF MAKING AND USING SAME” (Amunix Pharmaceuticals, Inc., priority 2011, published 2025)
Like-named read-outs stand apart in the source and are kept apart here.

Key:
[1] = cynomolgus monkey, in vivo
Experimental: The fusion protein GLP2-2G-XTEN_AE864 was evaluated for its pharmacokinetic properties in male cynomolgus monkeys following either subcutaneous or intravenous administration of the fusion protein at a single dosage level. Three male cynomolgus monkeys were injected IV and 3 male cynomolgus monkeys were injected SC with 2 mg/kg (25 nmol/kg) GLP2-2G-XTEN at time 0. Blood samples were collected from each monkey into prechilled heparinized tubes at pre-dose and at approximately 0.083 h (5 min), 1, 2, 4, 8, 24, 48, 72, 96, 120, 168, 216, 264, and 336 hours after administration of the fusion protein for the first phase of the study. Animals were allowed to “wash-out” for a 6 week period (4 weeks post-last collection time point of Phase 1), the groups were crossed over (SC to IV and IV to SC), and dosed again with the same dose of GLP2-2G-XTEN fusion protein. Blood samples were collected at pre-dose and at approximately 0.083 h (5 min), 1, 2, 4, 8, 24, 48, 72, 96, 120, 168, 216, 264, 336, 384, 432, and 504 hours post-dose in the second phase of the study. All blood samples were processed into plasma by centrifugation and split into two aliquots for analysis by ELISA. The samples were analyzed for fusion protein concentration, performed by anti-GLP2/anti-XTEN ELISA (AS1705) and the results were analyzed using WinNonLin to obtain the PK parameters.

[2] = tested on: indomethacin-induced intestinal inflammation in Wistar rats; type: in vivo, rat
Experimental: Study 2: Intestinal inflammation was induced in eighty male Wistar rats (Harlan Sprague Dawley) using indomethacin administered on Days 0 and 1 of the experiment. The rats were divided into eight treatment groups for treatment according to Table 20. All treatments were administered per the schedule starting on Day-3 of the experiment. Body weights were determined daily. On Day 2 (24 hours post-2nd indomethacin dose), the animals were prepped for sacrifice and analysis. Thirty minutes prior to sacrifice, the rats were injected intravenously with 1 ml 1% Evans Blue dye, in order to visualize ulcers and extent of inflammation by histopathology analysis. The rats were anesthetized and blood samples were removed to determine the concentration of GLP-2-2G-XTEN using the anti-XTEN/anti-GLP2 ELISA method. The rats were euthanized then necropsied and scored by gross examination of the intestines for the presence of adhesions; i.e., none=0, mild=1, moderate=2, or severe=3. The small intestines were removed and the length of each was recorded. In each small intestine, a longitudinal incision was made and the interior was examined. The degree and length of the ulcerated area was recorded as a score; i.e., none=0, few=1, multiple=2, or continuous=3. The fecal material was washed away with saline and blotted to remove excess fluid and each small intestine was weighed then processed for histopathology examination to quantitate the degree of inflammation; i.e., 0.0%=0, 1-33%=1, 34-66%=2, 67-100%=3.

B1: GLP2-2G-XTEN_AE864: fusion protein of GLP-2 with glycine at position 2 linked at the C-terminus to XTEN AE864; sequence of FIG. 28 (SEQ ID NO: 798) (protein)
chain: HGDGSFSDEMNTILDNLAARDFINWLIQTKITDGGSPAGSPTSTEEGTSESATPESGPGTSTEPSEGSAPGSPAGSPTSTEEGTSTEPSEGSAPGTSTEPSEGSAPGTSESATPESGPGSEPATSGSETPGSEPATSGSETPGSPAGSPTSTEEGTSESATPESGPGTSTEPSEGSAPGTSTEPSEGSAPGSPAGSPTSTEEGTSTEPSEGSAPGTSTEPSEGSAPGTSESATPESGPGTSTEPSEGSAPGTSESATPESGPGSEPATSGSETPGTSTEPSEGSAPGTSTEPSEGSAPGTSESATPESGPGTSESATPESGPGSPAGSPTSTEEGTSESATPESGPGSEPATSGSETPGTSESATPESGPGTSTEPSEGSAPGTSTEPSEGSAPGTSTEPSEGSAPGTSTEPSEGSAPGTSTEPSEGSAPGTSTEPSEGSAPGSPAGSPTSTEEGTSTEPSEGSAPGTSESATPESGPGSEPATSGSETPGTSESATPESGPGSEPATSGSETPGTSESATPESGPGTSTEPSEGSAPGTSESATPESGPGSPAGSPTSTEEGSPAGSPTSTEEGSPAGSPTSTEEGTSESATPESGPGTSTEPSEGSAPGTSESATPESGPGSEPATSGSETPGTSESATPESGPGSEPATSGSETPGTSESATPESGPGTSTEPSEGSAPGSPAGSPTSTEEGTSESATPESGPGSEPATSGSETPGTSESATPESGPGSPAGSPTSTEEGSPAGSPTSTEEGTSTEPSEGSAPGTSESATPESGPGTSESATPESGPGTSESATPESGPGSEPATSGSETPGSEPATSGSETPGSPAGSPTSTEEGTSTEPSEGSAPGTSTEPSEGSAPGSEPATSGSETPGTSESATPESGPGTSTEPSEGSAPG
For B1, the Cl [1] was 1.6 mL/h, the “T ½” value [1] was 125 h and the Vd [1] was 0.098 L/kg. For the same molecule, the AUCInf ([1]; iv, 2 mg/kg) was 3,700,000 hr * ng/mL, the Cl ([1]; iv, 2 mg/kg) was 1.9 mL/h and the T ½ ([1]; iv, 2 mg/kg) was 110.0 h. For the same molecule, the Vd ([1]; iv, 2 mg/kg) was 0.09 L/kg, the AUCInf ([1]; sc, 2 mg/kg) was 3,400,000 hr * ng/mL and the T ½ ([1]; sc, 2 mg/kg) was 120.0 h. The Vd ([1]; sc, 2 mg/kg) was 0.11 L/kg, the “protection of the intestines from inflammatory effects of indomethacin” value ([2]; conclusion of the experiment) was “provided significant protection to the intestines from the inflammatory effects of indomethacin” and the “histopathology: protective effects” value ([2]; daily bid peptide, once-daily fusion protein) was “most pronounced in the ileum, but were also seen in the jejunum”. For the same molecule, the efficacy by regimen ([2]; daily dosing at 2 mg/kg) was “greatest efficacy”, the adhesions score ([2]; once-daily fusion protein, daily bid peptide, FIG. 22B) was “nearly complete protection from adhesions” and the small intestine length ([2]; once-daily fusion protein, daily bid peptide, vs indomethacin-treated vehicle control) was “reached statistically significant difference”. The total disease score ([2]; peptide delivered bid, fusion protein delivered qd, vs indomethacin-treated vehicle control) was “significantly improved scores”, the “fusion protein in blood samples (anti-XTEN/anti-GLP2 ELISA)” value ([2]; rat, in vivo) was “detectable at Day 2 in all animals of Group 4 and Group 8, and three rats in Group 7” and the total disease score ([2]; single doses at 6 or 2 mg/kg, vs indomethacin-treated vehicle control) was “significantly improved scores”. For the same molecule, the efficacy by regimen ([2]; single doses of 6 mg/kg or 2 mg/kg) was “significant efficacy in some parameters” and the adhesions score ([2]; single high-dose 6 mg/kg) was “reached statistically significant difference”.
